Sequences and labels used below:
B1: Subtilisin-chymotrypsin inhibitor-2A, P01053 (parent)
chain: MSSVEKKPEGVNTGAGDRHNLKTEWPELVGKSVEEAKKVILQDKPEAQIIVLPVGTIVTMEYRIDRVRLFVDKLDNIAQVPRVG

The data set covers variants of B1. As to conditions: Hordeum vulgare; pH 6.3; 25 °C; GdnHCl; Fluorescence; MES 450 mM; reversible: yes; structure 2CI2; whole UniProt chain shown.

Data on 4 variants can be found in FireProtDB (doi:10.1021/bi00250a042).

Take MSSVEKKPEGVNTGAGDRHNLKTEWPELVGKSVEEAKKVILQDKPEAQIIVLPVGTIVAMEYRIDRVRLFVDKLDNIAQVPRVG: the “ddG of mutation (higher = less stable)” value came to 0.68 kcal/mol, the denaturant m value is 1.89 kcal/mol/M, the “denaturant midpoint (higher = more stable)” value was found to be 3.63 M and the unfolding free energy was found to be 6.86 kcal/mol.
Taken in the same sequence, the figures for MSSVEKKPEGVNTGAGDRHNLKTEWPELVGKSVEEAKKVILQDKPEAQIIVLPVGTIVDMEYRIDRVRLFVDKLDNIAQVPRVG were 0.04 kcal/mol, 1.87 kcal/mol/M, 4.01 M and 7.5 kcal/mol.
The corresponding values for MSSVEKKPEGVNTGAGDRHNLKTEWPELVGKSVEEAKKVILQDKPEAQIIVLPVGTIVAMAYRIDRVRLFVDKLDNIAQVPRVG are 0.67 kcal/mol, 1.94 kcal/mol/M, 3.54 M and 6.87 kcal/mol.
Taken in the same sequence, the figures for MSSVEKKPEGVNTGAGDRHNLKTEWPELVGKSVEEAKKVILQDKPEAQIIVLPVGTIVTMAYRIDRVRLFVDKLDNIAQVPRVG were 1.06 kcal/mol, 1.78 kcal/mol/M, 3.64 M and 6.48 kcal/mol.
